# The supplement of paper PMC5949888
# System: Saccharomyces cerevisiae PS128 hsf1 delta, HSF1(1-493) fusion
# Experiment: growth estimate (transactivation domain function in HSF1 fusion, heat-shock survival) (a.u. (slope of normalised read count over time)); higher = stronger growth at 37°C, i.e. more transactivation activity
# Settings: library: design library
# Outline: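 Transactivation-domain oligos were designed and fused to a truncated yeast HSF1 (amino acids 1–493), then expressed in a yeast strain lacking hsf1. Replica plating onto –trp 5-FOA plates was followed by incubation at 30°C or 37°C for 0, 2, 4, 6 and 8 days. Inserts were amplified by PCR and sequenced on an Illumina MiSeq as six barcoded replicates from a single experiment. The growth estimate is the slope of a robust linear fit over time of read counts normalised to sample totals and to starting count.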
sequence,measurement,value
PFPDTQDDFLKWWRSERAQ,growth estimate,< -0.25
EDDDRFSLWDSML,growth estimate,-0.141
TMDDVYNGLFDD,growth estimate,< -0.25
EDLYSIGWSDVY,growth estimate,-0.212
MLSPHGFSVDTSALLDLFSP,growth estimate,0.158
DLDESWDYIFEGTE,growth estimate,1.27
PFPDPQDDFLKWWRSEEAQ,growth estimate,-0.0255
QQNGEIAQLWDRN,growth estimate,-0.121
VADDIWEELLSEDK,growth estimate,-0.0473
MASSHGFSVDTSALLDLFSP,growth estimate,0.0397
PEAPGIELQELQELQALLQQ,growth estimate,< -0.25
DFDLDMLGDFDKDMLG,growth estimate,0.54
VADDIWEELLSADL,growth estimate,3.11
PEFPGIALQELQELQALLQQ,growth estimate,-0.223
VADDIWRELLSEDL,growth estimate,7.56
TMKDVYNYLFDD,growth estimate,< -0.25
PEFPGIELAELQELQALLQQ,growth estimate,-0.181
PDDDEFSLWDSML,growth estimate,1.67
TKDDVYNYLFDD,growth estimate,-0.238
DFDLDMLRDFDLDMLG,growth estimate,11.1
VADDIWEELLSEDR,growth estimate,0.315
EFNDKLDLDFILSN,growth estimate,< -0.25
PEFPGIELQELAELQALLQQ,growth estimate,0.131
EDLYSILWSDGY,growth estimate,0.303
QQNGEIAALWDFN,growth estimate,-0.237
PFPDTQADFLKWWRSEEAQ,growth estimate,< -0.25
MLSSHGFSVKTSALLDLFSP,growth estimate,-0.0119
DFDLDALGDFDLDMLG,growth estimate,5.01
MLSSHGFSKDTSALLDLFSP,growth estimate,-0.239
LFDADFLFGNDFA,growth estimate,0.761
EFNDLLDLDFKLSN,growth estimate,-0.099
VADDIWEELLSEDL,growth estimate,0.661
LFDYPFLFGNDFA,growth estimate,1.53
MLSSHRFSVDTSALLDLFSP,growth estimate,-0.227
DERSWIIELLEKDG,growth estimate,< -0.25
QQNGEIAQGWDFN,growth estimate,-0.247
TMDDVPNYLFDD,growth estimate,-0.232
PEFPGIELQELQELQALLQK,growth estimate,-0.125
PFPDTQDPFLKWWRSEEAQ,growth estimate,< -0.25
MLSSHGFSVDTSALLDLKSP,growth estimate,-0.096
MLSSHGFSVDTSALLDLFSA,growth estimate,-0.127
EDDAEFSLWDSML,growth estimate,0.0227
PEFPGIELQELQELPALLQQ,growth estimate,< -0.25
MPSSHGFSVDTSALLDLFSP,growth estimate,0.171
VADDIWEELLPEDL,growth estimate,-0.022
VADDIWEELLSEDG,growth estimate,0.0334
PEFPGIELQELQELQALLGQ,growth estimate,-0.226
LFDYKFLFGNDFA,growth estimate,0.0164
RQNGEIAQLWDFN,growth estimate,< -0.25
EFNDLLDLDFILSP,growth estimate,-0.228
EADDEFSLWDSML,growth estimate,0.306
DELSWIIELLEKPG,growth estimate,0.0373
TMDDVYRYLFDD,growth estimate,1.71
EFNDLLDKDFILSN,growth estimate,-0.227
DFDLDMLPDFDLDMLG,growth estimate,0.485
DFDLDPLGDFDLDMLG,growth estimate,2.12
DLDESWKYIFETTE,growth estimate,-0.0397
EDLYKILWSDVY,growth estimate,-0.0738
LFDYDFLFGNDFR,growth estimate,3.17
VADDIWEELPSEDL,growth estimate,< -0.25
LFDYDFLFGNDGA,growth estimate,0.693
PFPDTQDAFLKWWRSEEAQ,growth estimate,0.5
LFDYDFLFGNPFA,growth estimate,-0.0703
DELSWIIELLEKRG,growth estimate,< -0.25
TMDDVYNYLADD,growth estimate,0.274
DPDESWDYIFETTE,growth estimate,0.0829
DFDLPMLGDFDLDMLG,growth estimate,5.28
EDRYSILWSDVY,growth estimate,-0.176
MLSSHGFSVDTSALLDLFSP,growth estimate,0.0347
PFPDTQDDFLKAWRSEEAQ,growth estimate,< -0.25
PEFPGRELQELQELQALLQQ,growth estimate,< -0.25
QQNGEIAQLWRFN,growth estimate,-0.166
TMDDVYNYKFDD,growth estimate,< -0.25
PFPDTQDDFLKWPRSEEAQ,growth estimate,< -0.25
DLDESWDAIFETTE,growth estimate,< -0.25
DFDLKMLGDFDLDMLG,growth estimate,3.04
DLDESWDYIFETTR,growth estimate,1.15
TMDDVYKYLFDD,growth estimate,0.872
MLSSHGFSVDTSALGDLFSP,growth estimate,-0.213
DFPLDMLGDFDLDMLG,growth estimate,3.12
LFDYDFLFGNDKA,growth estimate,0.271
PEFPGIELQELQELQALLQQ,growth estimate,-0.0979
TMDDVYNYLGDD,growth estimate,-0.149
PFPDTQDDFLKWWKSEEAQ,growth estimate,-0.186
QQKGEIAQLWDFN,growth estimate,< -0.25
PFPDTQDDFLKWWRSREAQ,growth estimate,< -0.25
PEFPGIELQELQELRALLQQ,growth estimate,< -0.25
DFDLDMLKDFDLDMLG,growth estimate,2.58
MLSSHGFSVATSALLDLFSP,growth estimate,-0.234
DELSWIIERLEKDG,growth estimate,< -0.25
MLSSHGFPVDTSALLDLFSP,growth estimate,-0.119
MLSSHGFSVDTSALLALFSP,growth estimate,-0.21
DFDGDMLGDFDLDMLG,growth estimate,1.92
PEFPGIELQELQELQALLRQ,growth estimate,-0.245
TMDDVYNYLFDR,growth estimate,-0.243
GFPDTQDDFLKWWRSEEAQ,growth estimate,-0.128
EFNDLGDLDFILSN,growth estimate,-0.0268
DLDESWDYIFEATE,growth estimate,2.47
DLDESWAYIFETTE,growth estimate,0.283
VAGDIWEELLSEDL,growth estimate,0.447
EFGDLLDLDFILSN,growth estimate,0.032
MLSSHGFSVDTSALLDLFPP,growth estimate,-0.106
DLDESWDYRFETTE,growth estimate,-0.247
EDDDEFSGWDSML,growth estimate,0.0815
EFNDLLRLDFILSN,growth estimate,< -0.253
DGLSWIIELLEKDG,growth estimate,-0.173
EDDDEFSAWDSML,growth estimate,-0.0271
VADDIWEELLSERL,growth estimate,5.09
DLDEKWDYIFETTE,growth estimate,< -0.25
PEFPGIELQELQELQALLQG,growth estimate,-0.0522
EDDDEFSLRDSML,growth estimate,-0.248
DLDESWDYIPETTE,growth estimate,< -0.25
MLSSHGFKVDTSALLDLFSP,growth estimate,< -0.25
DELSWIIELREKDG,growth estimate,-0.239
DFDLDMLGDFDLDMRG,growth estimate,6.95
LKDYDFLFGNDFA,growth estimate,-0.0701
GFDLDMLGDFDLDMLG,growth estimate,1.03
DLDESWDYIFEPTE,growth estimate,1.97
DLDESADYIFETTE,growth estimate,-0.127
DFDLDMLGDFDLDMLR,growth estimate,6.97
DLDESWDYIFEKTE,growth estimate,-0.233
ERNDLLDLDFILSN,growth estimate,-0.237
PEFPPIELQELQELQALLQQ,growth estimate,-0.0915
LFDYDFLFGNDAA,growth estimate,2.84
LFDYDFLFGNGFA,growth estimate,1.45
DFDADMLGDFDLDMLG,growth estimate,6.93
LFDYDFLFGRDFA,growth estimate,3.41
AELSWIIELLEKDG,growth estimate,-0.248
RMDDVYNYLFDD,growth estimate,-0.0132
PFPDTQDDFLKWWPSEEAQ,growth estimate,3.12
DLDKSWDYIFETTE,growth estimate,-0.196
MLSSHGFSVDTSPLLDLFSP,growth estimate,-0.191
QQNGEKAQLWDFN,growth estimate,-0.22
MLSSHGFSVGTSALLDLFSP,growth estimate,-0.248
DELAWIIELLEKDG,growth estimate,0.883
EFNDLLDLGFILSN,growth estimate,-0.244
PFPDTQDDFLAWWRSEEAQ,growth estimate,2.37
MLPSHGFSVDTSALLDLFSP,growth estimate,-0.0639
MLSSHGFSVDTSALLKLFSP,growth estimate,-0.216
DELSGIIELLEKDG,growth estimate,-0.238
QQPGEIAQLWDFN,growth estimate,-0.242
EFNDLLDLDFPLSN,growth estimate,1.64
EDDDEFSLWRSML,growth estimate,-0.116
DELSWIIELLEKDR,growth estimate,0.276
QQNGKIAQLWDFN,growth estimate,-0.237
DPLSWIIELLEKDG,growth estimate,-0.102
VADDAWEELLSEDL,growth estimate,-0.24
LFDYDFRFGNDFA,growth estimate,-0.0564
TMDDRYNYLFDD,growth estimate,-0.144
EFNDLLDLDRILSN,growth estimate,0.151
VADDPWEELLSEDL,growth estimate,-0.214
DLDESWDYIFPTTE,growth estimate,0.0438
MLSSHGFSVDTSALLDRFSP,growth estimate,-0.229
DLDESWDYIFRTTE,growth estimate,0.833
QQNGEIAQLWDFR,growth estimate,-0.245
EFNDLPDLDFILSN,growth estimate,-0.195
PFPDTQPDFLKWWRSEEAQ,growth estimate,-0.22
EDLYSIRWSDVY,growth estimate,-0.219
MLSSHGFSVDTSALLGLFSP,growth estimate,-0.207
EDDDEKSLWDSML,growth estimate,-0.0523
DFDLDKLGDFDLDMLG,growth estimate,1.4
EFNDLLDLDFILSG,growth estimate,1.41
EDDPEFSLWDSML,growth estimate,1.77
QQNGEIAQLWDGN,growth estimate,-0.163
PFADTQDDFLKWWRSEEAQ,growth estimate,0.444
DFDLDMLGDFDGDMLG,growth estimate,4.69
DELSWIIELLKKDG,growth estimate,-0.239
TMDDVKNYLFDD,growth estimate,< -0.25
EDGDEFSLWDSML,growth estimate,0.533
VADDIWEELLSEPL,growth estimate,5.18
MLSSHGFSVDTSALLDGFSP,growth estimate,-0.227
DLDESWDYIFETRE,growth estimate,0.311
MLSSHGFSVDTSALLDLFSK,growth estimate,-0.245
MLSSHGFSVDTSALLDLFSG,growth estimate,-0.181
PEFPGIELQELQGLQALLQQ,growth estimate,< -0.25
TMDDVYNPLFDD,growth estimate,< -0.25
EDDDEFSPWDSML,growth estimate,-0.228
TMDDVYNYLFGD,growth estimate,1.05
PFPDTQDDFLKWWRSEEAA,growth estimate,-0.236
VADAIWEELLSEDL,growth estimate,0.167
PAPDTQDDFLKWWRSEEAQ,growth estimate,0.0134
DFDLDMLGDFDLDRLG,growth estimate,0.414
QQNGEIAQLWDFK,growth estimate,< -0.25
LFDYDFLFGNKFA,growth estimate,-0.246
DLDESWDKIFETTE,growth estimate,-0.06
LFDYDFLFGNDFP,growth estimate,15.5
LFDYDFLFGNDFK,growth estimate,2.23
EDDDGFSLWDSML,growth estimate,0.241
TADDVYNYLFDD,growth estimate,0.0678
